Test results reported in patent publication US20240002497A1 (Merck Sharp & Dohme, published 2024).
Read-outs that look alike come from different tables or passages of the source.

Experiments:
rhNav1.7α + β1-β2-β3 [1] = target: T1, rhNav1.7α + β1-β2-β3 (rhesus monkey); assay: binding FACS, CHO FlpIn
T1 construct: also called rhNav1.7-beta1-beta2-beta3; rhNav1.7-β1-β2-β3
Procedure: (§1) Binding of the ISVDs to cell-expressed Nav1.7α was detected via murine anti-Flag (Sigma, catalog #F1804). Briefly, cells were resuspended in FACS buffer (PBS, 10% FBS, NaN₃) and transferred to a 96-well V-bottom plate at 1×10^5 cells/well. Purified FLAG3-tagged ISVD was diluted in FACS buffer and added to the cells for 30 minutes at 4° C. […] Prior to the read-out, the samples were resuspended in 1 μg/mL propidium iodide (Sigma, catalog #P4170) to exclude dead cells. Between each step, the cells were centrifuged for 5 minutes at 200 grams and washed with 100 μL/well FACS buffer.

huNav1.7α + β1-β2-β3 [2] = target: T2, huNav1.7α + β1-β2-β3 (human, UniProt Q15858 1-1988; A5A6L6 19-218; O60939 30-215; Q2KI11 23-215); assay: binding FACS, CHO FlpIn
T2 construct: also called huNav1.7-beta1-beta2-beta3; huNav1.7-β1-β2-β3
Procedure: as §1

rhNav1.7α + β1-β2-β3 [3] = target: T1, rhNav1.7α + β1-β2-β3; assay: binding FACS, CHO FlpIn; remark: listed apart in the source
Outline: (§2)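 FLAG3-tagged ISVD, 30 min, 4° C, FACS buffer (PBS/10% FBS/NaN₃); 1×10^5 cells/well; detection murine anti-Flag; PI 1 μg/mL live gate; washes between steps.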

huNav1.7α + β1-β2-β3 [4] = target: T2, huNav1.7α + β1-β2-β3; assay: binding FACS, CHO FlpIn; remark: listed apart in the source
Outline: as §2

muNav1.7α [5] = target: T3, muNav1.7α (murine, UniProt Q62205 1-1984); assay: binding FACS, HEK JmpIn
T3 construct: HEK JmpIn cells; also called murine Nav1.7α
Procedure: as §1

muNav1.7α [6] = target: T3, muNav1.7α; assay: binding FACS, HEK JmpIn; remark: listed apart in the source
huNav1.7α + β1 [7] = target: huNav1.7α + β1 (human); assay: cell-based or functional assay
rhNav1.7α + β1-β2-β3 [8] = target: T1, rhNav1.7α + β1-β2-β3; assay: cell-based or functional assay
rhNav1.7α + β1-β2-β3 [9] = target: T4, rhNav1.7α + β1-β2-β3 (rhesus monkey); assay: competition FACS, CHO FlpIn cells, vs EC40 of F0103275B05(N93R)
T4 construct: also called rhNav1.7-beta1-beta2-beta3; rhesus Nav1.7α

[10] = target: T5, huNav1.7α(E281V) + β1-β2-β3 (human); assay: binding FACS, CHO FlpIn cells
T5 construct: polyprotein as encoded; the entry already carries E281V; also called huNav1.7(E281V)-beta1-beta2-beta3
Procedure: as §1
(§3) Based on the huNav1.7α model (as described above) the following huNav1.7α-rhNav1.7α polymorphisms can be allocated to the extracellular part of DI: N146S, F276V, R277Q, E281V and V331M. The first of the residues is in DI S1-S2 whereas the latter four residues belong to DI S5-S6. FACS binding studies (as described above) were performed to stable CHO FlpIn cell lines expressing different variants of huNav1.7+β1−β2−β3 each including one of the four possible extracellular huNav1.7α-rhNav1.7α polymorphisms in the DI S5-S6 region: F276V, R277Q, E281V and V331M (Table 23 and FIGS. 22A-22F). Individual polymorphisms were each sufficient to abolish the binding of F0103265B04, F0103362B08, F010301080, and F0103262B06 to huNav1.7α, recapitulating the absence of binding on rhNav1.7α. F0103262CO2, F0103275B05 and F0103387G05 are more subtly affected in terms of EC50 or Bmax by some of the polymorphisms. None of the individual DI S5-S6 polymorphisms by themselves appear to have an impact on the binding of the two rhNav1.7α cross-reactive ISVDs F0103387G04 and F0103464B09. In addition, no effect on binding of the two ISVDs was observed (data not shown) for the three extracellular DIV VSD huNav1.7α-rhNav1.7α polymorphisms Q1530P, H1531Y and E1534D (FIG. 22G).

huNav1.7α + β1-β2-β3 [11] = target: T6, huNav1.7α + β1-β2-β3 (human, UniProt Q15858 1-1988; A5A6L6 19-218; O60939 30-215; Q2KI11 23-215); assay: binding FACS, CHO FlpIn cells
T6 construct: Cell line (CHO FlpIn, HEK FlpIn, transient HEK293T) is named under assay; also called huNav1.7-beta1-beta2-beta3; human Nav1.7α with Navβ1, Navβ2 and Navβ3
Procedure: as §1, §3

[12] = target: T7, huNav1.7α(F276V) + β1-β2-β3 (human, UniProt Q15858 1-1988; A5A6L6 19-218; O60939 30-215; Q2KI11 23-215); assay: binding FACS, CHO FlpIn cells
T7 construct: polyprotein as encoded, P2A sites liberate the subunits; the entry already carries F276V; also called huNav1.7(F276V)-beta1-beta2-beta3
Procedure: as §1, §3

[13] = target: T8, huNav1.7α(V331M) + β1-β2-β3 (human); assay: binding FACS, CHO FlpIn cells
T8 construct: polyprotein as encoded; the entry already carries V331M; also called huNav1.7(V331M)-beta1-beta2-beta3
Procedure: as §1, §3

rhNav1.7α + β1-β2-β3 [14] = target: T4, rhNav1.7α + β1-β2-β3; assay: binding FACS, CHO FlpIn cells
Procedure: as §1, §3

[15] = target: T9, huNav1.7α(R277Q) + β1-β2-β3 (human); assay: binding FACS, CHO FlpIn cells
T9 construct: polyprotein as encoded; the entry already carries R277Q; also called huNav1.7(R277Q)-beta1-beta2-beta3
Procedure: as §1, §3

huNav1.7α + β1-β2-β3 [16] = target: T6, huNav1.7α + β1-β2-β3; assay: competition FACS, CHO FlpIn cells, vs EC25 of F0103275B05(N93R)
huNav1.7α + β1-β2-β3 [17] = target: T6, huNav1.7α + β1-β2-β3; assay: binding FACS, CHO FlpIn cells; remark: listed apart in the source
Outline: as §2

rhNav1.7α + β1-β2-β3 [18] = target: T4, rhNav1.7α + β1-β2-β3; assay: binding FACS, CHO FlpIn cells; remark: listed apart in the source
Outline: as §2

huNav1.7α + β1-β2-β3 [19] = target: T6, huNav1.7α + β1-β2-β3; assay: competition FACS, HEK FlpIn cells, vs EC30 of CMYC3-F0103265B04
Outline: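 HEK FlpIn cells expressing huNav1.7α+β1-β2-β3 (1×10⁵/well) were incubated 1.5 h at 4 °C with a dilution series of purified ISVD plus CMYC3-tagged F0103265B04 at EC30-equivalent concentration in PBS, 2% FBS, 0.05% NaN₃. Flow cytometry read-out with 5 nM TOPRO3 to exclude dead cells.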

ratNav1.7α [20] = target: T10, ratNav1.7α (rat, UniProt O08562 1-1984); assay: cell-based or functional assay
huNav1.7α + β1 [21] = target: huNav1.7α + β1 (human); assay: cell-based or functional assay; remark: listed apart in the source
rhNav1.7α + β1-β2-β3 [22] = target: T1, rhNav1.7α + β1-β2-β3; assay: cell-based or functional assay; remark: listed apart in the source
huNav1.7α [23] = target: T11, huNav1.7α (human, UniProt Q15858 1-1988); assay: binding FACS, HEK
T11 construct: HEK cells expressing the α subunit without β subunits; also called huNav1.7 (alpha-subunit); Human Nav1.7α

huNav1.7α + β1 [24] = target: T12, huNav1.7α + β1 (human); assay: binding FACS, HEK
T12 construct: HEK293 cells; also called huNav1.7-beta1; huNav1.7-β1

ratNav1.7α [25] = target: T10, ratNav1.7α; assay: cell-based or functional assay; remark: listed apart in the source
huNav1.7α + β1 [26] = target: T12, huNav1.7α + β1; assay: cell-based or functional assay; remark: listed apart in the source
rhNav1.7α + β1-β2-β3 [27] = target: T1, rhNav1.7α + β1-β2-β3; assay: cell-based or functional assay; remark: listed apart in the source
huNav1.7α + β1 [28] = target: T12, huNav1.7α + β1; assay: cell-based or functional assay; remark: listed apart in the source
rhNav1.7α + β1-β2-β3 [29] = target: T1, rhNav1.7α + β1-β2-β3; assay: cell-based or functional assay; remark: listed apart in the source
huNav1.7α [30] = target: T11, huNav1.7α; assay: cell-based or functional assay

T10 sequence (O08562 whole entry): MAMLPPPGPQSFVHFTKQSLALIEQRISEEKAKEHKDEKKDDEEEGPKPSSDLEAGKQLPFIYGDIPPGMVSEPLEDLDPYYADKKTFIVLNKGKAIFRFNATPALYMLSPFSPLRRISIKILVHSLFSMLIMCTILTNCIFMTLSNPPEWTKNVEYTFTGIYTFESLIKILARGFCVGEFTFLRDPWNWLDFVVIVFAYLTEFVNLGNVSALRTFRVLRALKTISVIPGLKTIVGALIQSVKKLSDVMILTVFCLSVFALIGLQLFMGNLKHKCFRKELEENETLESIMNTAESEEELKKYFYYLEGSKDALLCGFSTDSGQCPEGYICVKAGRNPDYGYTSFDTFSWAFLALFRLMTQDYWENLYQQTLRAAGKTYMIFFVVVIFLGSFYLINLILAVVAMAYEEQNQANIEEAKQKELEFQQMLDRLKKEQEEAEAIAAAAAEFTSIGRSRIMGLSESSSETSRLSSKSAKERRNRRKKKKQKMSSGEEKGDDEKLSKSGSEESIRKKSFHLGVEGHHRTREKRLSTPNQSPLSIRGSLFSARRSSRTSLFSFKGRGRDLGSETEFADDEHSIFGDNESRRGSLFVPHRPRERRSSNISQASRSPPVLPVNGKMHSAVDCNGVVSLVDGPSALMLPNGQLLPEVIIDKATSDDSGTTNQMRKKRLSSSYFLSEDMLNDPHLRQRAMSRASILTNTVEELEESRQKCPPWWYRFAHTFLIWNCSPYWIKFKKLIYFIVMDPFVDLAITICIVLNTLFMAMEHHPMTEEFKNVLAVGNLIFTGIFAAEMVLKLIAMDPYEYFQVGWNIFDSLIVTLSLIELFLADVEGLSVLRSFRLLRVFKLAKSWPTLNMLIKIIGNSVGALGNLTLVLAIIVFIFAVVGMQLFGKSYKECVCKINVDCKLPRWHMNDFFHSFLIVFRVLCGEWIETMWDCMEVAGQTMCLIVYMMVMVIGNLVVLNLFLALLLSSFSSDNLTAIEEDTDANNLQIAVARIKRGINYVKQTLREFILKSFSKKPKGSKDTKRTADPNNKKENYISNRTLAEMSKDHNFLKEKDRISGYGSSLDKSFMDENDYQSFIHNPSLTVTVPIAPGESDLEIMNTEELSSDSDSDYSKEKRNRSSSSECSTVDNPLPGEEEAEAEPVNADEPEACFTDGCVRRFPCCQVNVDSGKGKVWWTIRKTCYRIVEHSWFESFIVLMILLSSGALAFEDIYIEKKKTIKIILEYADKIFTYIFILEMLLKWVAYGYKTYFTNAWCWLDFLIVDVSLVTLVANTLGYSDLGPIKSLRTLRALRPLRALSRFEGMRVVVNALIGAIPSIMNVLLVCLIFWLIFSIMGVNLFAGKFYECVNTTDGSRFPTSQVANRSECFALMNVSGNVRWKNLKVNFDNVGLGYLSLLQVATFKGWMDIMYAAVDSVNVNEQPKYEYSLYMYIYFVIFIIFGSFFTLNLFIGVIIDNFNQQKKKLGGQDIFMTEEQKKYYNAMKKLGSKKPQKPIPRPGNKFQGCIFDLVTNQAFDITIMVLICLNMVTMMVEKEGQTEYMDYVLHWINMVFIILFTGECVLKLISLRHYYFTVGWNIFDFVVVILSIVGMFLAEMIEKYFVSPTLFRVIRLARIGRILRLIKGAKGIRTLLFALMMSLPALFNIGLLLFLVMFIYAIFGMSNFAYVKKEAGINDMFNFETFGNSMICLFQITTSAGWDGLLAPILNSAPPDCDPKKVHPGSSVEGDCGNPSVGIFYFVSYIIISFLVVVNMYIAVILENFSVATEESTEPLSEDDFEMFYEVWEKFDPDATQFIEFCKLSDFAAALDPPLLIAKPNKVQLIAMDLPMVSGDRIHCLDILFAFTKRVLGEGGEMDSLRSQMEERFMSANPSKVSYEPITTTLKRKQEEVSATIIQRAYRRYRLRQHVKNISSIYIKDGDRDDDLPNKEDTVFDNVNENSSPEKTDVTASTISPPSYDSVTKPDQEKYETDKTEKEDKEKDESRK

B1: F0103464B09 (parental)-FLAG-HIS6 (VHH)
VHH: EVQLVESGGGLVQPGGSLRLSCATTSRAFIRDVFTGWYRRVPGKERELVARIYNGGNTNYADFAKGRFSISRDNAKKMVTLRMSNLKPEDTGVYYCLFSGTINTGREYRSGDYWGQGTLVTVSS
notes: also called F010346B09
rhNav1.7α + β1-β2-β3 [1]
  EC50: 18 nM
huNav1.7α + β1-β2-β3 [2]
  EC50: 5.2 nM
rhNav1.7α + β1-β2-β3 [3]
  Bmax: 33%
  EC50: 18 nM
huNav1.7α + β1-β2-β3 [4]
  Bmax: 99%
  EC50: 5.2 nM
muNav1.7α [5]
  Bmax: 74%
  EC50: 6.3 nM
muNav1.7α [6]
  EC50: 6.3 nM
huNav1.7α + β1 [7]
  Qpatch IC50: 7 nM
rhNav1.7α + β1-β2-β3 [8]
  Qpatch IC50: 166 nM

B2: F0103464B09 (VHH)
VHH: EVQLVESGGGLVQPGGSLRLSCATTSRAFIRDVFTGWYRRVPGKERELVARIYNGGNTNYADFAKGRFSISRDNAKKMVTLRMSNLKPEDTGVYYCLFSGTINTGREYRSGDYWGQGTLVTVSS
notes: entry includes the FLAG-HIS6 tag; also called F0103464B09 (parental)-FLAG-HIS6; F103464B09
rhNav1.7α + β1-β2-β3 [9]
  IC50: 79 nM
[10]
  EC50: 2.7 nM
huNav1.7α + β1-β2-β3 [11]
  EC50: 3.4 nM
[12]
  EC50: 2.7 nM
[13]
  EC50: 1.6 nM
rhNav1.7α + β1-β2-β3 [14]
  EC50: 31 nM
[15]
  EC50: 2.6 nM
huNav1.7α + β1-β2-β3 [16]
  IC50: 12 nM
huNav1.7α + β1-β2-β3 [17]
  EC50: 5.4 nM
rhNav1.7α + β1-β2-β3 [18]
  Bmax: 54%
  EC50: 33 nM

B3: F0103387G05 (VHH)
VHH: EVQLVESGGGLVQAGGSLRLSCDASGRILRIGYMRWHRQGAGKQREFVARITDDSATDYADSVKGRFTISRDNAKNTVYLQMNNLNPEDTAVYYCEALVTASVRGGSIHSGTYWGRGTLVTVSS
notes: entry includes the FLAG-HIS6 tag; also called F0103387G05 (parental)-FLAG-HIS6
huNav1.7α + β1-β2-β3 [19]
  IC50: 9.4 nM
rhNav1.7α + β1-β2-β3 [9]
  binding result: no binding
[10]
  EC50: 2.3 nM
huNav1.7α + β1-β2-β3 [11]
  EC50: 2.6 nM
[12]
  EC50: 2.4 nM
[13]
  EC50: 5.9 nM
[15]
  EC50: 2.2 nM
huNav1.7α + β1-β2-β3 [16]
  IC50: 10 nM

B4: 69AVB (Fc fusion)
chain: EVQLVESGGGLAQPGGSLRLSCAASGPVFNINRMAWYRRAPGKQRELVAYVTPTGDISYTDSVKGRFTISRDGSKRWSLQMNSLTPEDTAVYYCRALLQPDSYSNTRTYWGQGTLVTVSS
notes: also called F010301656-5GS-Fc; F10301656* (ISVD with human IgG1 Fc); not shown: 5GS linker; human IgG1 Fc
ratNav1.7α [20]
  QPatch electrophysiology IC50 [M], HEK cells: 2.1e-08 M
huNav1.7α + β1 [21]
  Human SA ratio of QPatch IC50: 2
  QPatch electrophysiology IC50 [M], HEK cells: 1.3e-08 M
  QPatch electrophysiology IC50 [M], HEK cells, + 10 µM human SA: 2.6e-08 M
rhNav1.7α + β1-β2-β3 [22]
  QPatch electrophysiology IC50 [M], HEK cells: 8e-09 M
huNav1.7α [23]
  EC50: 11 nM
huNav1.7α + β1 [24]
  EC50: 9 nM
ratNav1.7α [25]
  Qpatch IC50: 21 nM
huNav1.7α + β1 [26]
  Qpatch IC50: 13 nM
rhNav1.7α + β1-β2-β3 [27]
  Qpatch IC50: 8 nM
huNav1.7α + β1 [28]
  Qpatch IC50 [M], HEK cells: 1.3e-08 M
rhNav1.7α + β1-β2-β3 [29]
  Qpatch IC50 [M], HEK cells: 8e-09 M

B5: F0103265B04-FLAG3-HIS6 (VHH)
VHH: EVQLVESGGGLVQPGGSLRLSCAAPSFIFSNNYMEWYRQAPGKQRDWVARITGRGNTNYLDSVKGRFTISRDDAKNTVYLEIDSLKPEDTAVYYCSALWYGGRAWGKGTLVTVSS
huNav1.7α [30]
  Qpatch IC50 [M], HEK cells: 1.2e-07 M
huNav1.7α + β1 [7]
  Qpatch IC50: 120 nM
